This note sets out measurements from US20140234336A1.

For the experiment, the target named is HA of H3N2 influenza virus Wyomin/3/03.rg (influenza A virus H3N2 Wyomin/3/03.rg). Put plainly: cell-based or functional assay.

Turning to CT149 antibody, the MN titer came to 5 µg/mL.
